Source: IntAct's records for PubMed 21828050

B1: Kelch-like protein 7 (Homo sapiens), Q8IXQ5 (parent)
chain: MAASGVEKSSKKKTEKKLAAREEAKLLAGFMGVMNNMRKQKTLCDVILMVQERKIPAHRVVLAAASHFFNLMFTTNMLESKSFEVELKDAEPDIIEQLVEFAYTARISVNSNNVQSLLDAANQYQIEPVKKMCVDFLKEQVDASNCLGISVLAECLDCPELKATADDFIHQHFTEVYKTDEFLQLDVKRVTHLLNQDTLTVRAEDQVYDAAVRWLKYDEPNRQPFMVDILAKVRFPLISKNFLSKTVQAEPLIQDNPECLKMVISGMRYHLLSPEDREELVDGTRPRRKKHDYRIALFGGSQPQSCRYFNPKDYSWTDIRCPFEKRRDAACVFWDNVVYILGGSQLFPIKRMDCYNVVKDSWYSKLGPPTPRDSLAACAAEGKIYTSGGSEVGNSALYLFECYDTRTESWHTKPSMLTQRCSHGMVEANGLIYVCGGSLGNNVSGRVLNSCEVYDPATETWTELCPMIEARKNHGLVFVKDKIFAVGGQNGLGGLDNVEYYDIKLNEWKMVSPMPWKGVTVKCAAVGSIVYVLAGFQGVGRLGHILEYNTETDKWVANSKVRAFPVTSCLICVVDTCGANEETLET

Variants of: B1
Settings: with cul3_human CUL3, Q13618

Row | effect of a mutation on the interaction | Variant
1 | disrupting interaction | A153T
2 | disrupting interaction | A153V

Variants of: B1
Settings: with cul3_human CUL3, Q13618
Remark: another data set of the same source

Row | effect of a mutation on the interaction | Variant
3 | decreasing interaction | A153V
